Data taken from patent publication US20100284921A1.

Target: human polyomavirus (JC virus) T-antigen (JC virus (human polyomavirus))
Assay: competition on T-antigen positive cells, 1 hour: 100-fold excess of unconjugated pAb416 against the ^125I 8 Ab/CLIO conjugate

For “pAb416, a monoclonal antibody against T-antigen (IgG, not coupled to CLIO)”, the percent decrease of binding and internalization of ^125I-Ab-CLIO was > 80%.
